3 variants from IntAct's records for PubMed 21242966 can be followed below.

B1: 14-3-3 protein epsilon (Rattus norvegicus (Rat)), P62260 (parent)
chain: MDDREDLVYQAKLAEQAERYDEMVESMKKVAGMDVELTVEERNLLSVAYKNVIGARRASWRIISSIEQKEENKGGEDKLKMIREYRQMVETELKLICCDILDVLDKHLIPAANTGESKVFYYKMKGDYHRYLAEFATGNDRKEAAENSLVAYKAASDIAMTELPPTHPIRLGLALNFSVFYYEILNSPDRACRLAKAAFDDAIAELDTLSEESYKDSTLIMQLLRDNLTLWTSDMQGDGEEQNKEALQDVEDENQ
B2: F-box only protein 4 (Homo sapiens), Q9UKT5 (parent)
chain: MAGSEPRSGTNSPPPPFSDWGRLEAAILSGWKTFWQSVSKERVARTTSREEVDEAASTLTRLPIDVQLYILSFLSPHDLCQLGSTNHYWNETVRDPILWRYFLLRDLPSWSSVDWKSLPDLEILKKPISEVTDGAFFDYMAVYRMCCPYTRRASKSSRPMYGAVTSFLHSLIIQNEPRFAMFGPGLEELNTSLVLSLMSSEELCPTAGLPQRQIDGIGSGVNFQLNNQHKFNILILYSTTRKERDRAREEHTSAVNKMFSRHNEGDDQQGSRYSVIPQIQKVCEVVDGFIYVANAEAHKRHEWQDEFSHIMAMTDPAFGSSGRPLLVLSCISQGDVKRMPCFYLAHELHLNLLNHPWLVQDTEAETLTGFLNGIEWILEEVESKRAR

The variants in test [1] derive from B1. Particulars: with fbx4_human FBXO4, Q9UKT5.
The variants in test [2] derive from B2. Particulars: with 1433e_human YWHAE.
In test [3] the parent is B2. Particulars: with 1433e_mouse Ywhae.
Test [4] covers variants of B2. Particulars: with 1433e_human YWHAE. This is another data set of the same source.
The variants in test [5] derive from B2. Particulars: with 1433e_rat Ywhae, P62260.

Take MDDREDLVYQAKLAEQAERYDEMVESMKKVAGMDVELTVEERNLLSVAYENVIGARRASWRIISSIEQKEENKGGEDKLKMIREYRQMVETELKLICCDILDVLDKHLIPAANTGESKVFYYKMKGDYHRYLAEFATGNDRKEAAENSLVAYKAASDIAMTELPPTHPIRLGLALNFSVFYYEILNSPDRACRLAKAAFDDAIAELDTLSEESYKDSTLIMQLLRDNLTLWTSDMQGDGEEQNKEALQDVEDENQ [K50E]: the “effect of a mutation on the interaction” value in test [1] is “disrupting interaction”.

Consider MAGSEPRRGTNSPPPPFSDWGRLEAAILSGWKTFWQSVSKERVARTTSREEVDEAASTLTRLPIDVQLYILSFLSPHDLCQLGSTNHYWNETVRDPILWRYFLLRDLPSWSSVDWKSLPDLEILKKPISEVTDGAFFDYMAVYRMCCPYTRRASKSSRPMYGAVTSFLHSLIIQNEPRFAMFGPGLEELNTSLVLSLMSSEELCPTAGLPQRQIDGIGSGVNFQLNNQHKFNILILYSTTRKERDRAREEHTSAVNKMFSRHNEGDDQQGSRYSVIPQIQKVCEVVDGFIYVANAEAHKRHEWQDEFSHIMAMTDPAFGSSGRPLLVLSCISQGDVKRMPCFYLAHELHLNLLNHPWLVQDTEAETLTGFLNGIEWILEEVESKRAR [S8R], for which the “effect of a mutation on the interaction” value in test [2] is recorded as “decreasing interaction”; in test [3] it was “disrupting interaction”; in test [4], “disrupting interaction”; in test [5], “decreasing interaction”.

As to MAGSEPRSGTNAPPPPFSDWGRLEAAILSGWKTFWQSVSKERVARTTSREEVDEAASTLTRLPIDVQLYILSFLSPHDLCQLGSTNHYWNETVRDPILWRYFLLRDLPSWSSVDWKSLPDLEILKKPISEVTDGAFFDYMAVYRMCCPYTRRASKSSRPMYGAVTSFLHSLIIQNEPRFAMFGPGLEELNTSLVLSLMSSEELCPTAGLPQRQIDGIGSGVNFQLNNQHKFNILILYSTTRKERDRAREEHTSAVNKMFSRHNEGDDQQGSRYSVIPQIQKVCEVVDGFIYVANAEAHKRHEWQDEFSHIMAMTDPAFGSSGRPLLVLSCISQGDVKRMPCFYLAHELHLNLLNHPWLVQDTEAETLTGFLNGIEWILEEVESKRAR [S12A], the entries for the “effect of a mutation on the interaction” value in test [3], in test [4] and in test [5] were “disrupting interaction”, “disrupting interaction” and “decreasing interaction”, respectively.
